In patent publication US20050124036:

How the values were obtained:
[1] = biological target: T1, streptokinase (S8026) (Sigma, Deisenhofen), P00779
T1 chain: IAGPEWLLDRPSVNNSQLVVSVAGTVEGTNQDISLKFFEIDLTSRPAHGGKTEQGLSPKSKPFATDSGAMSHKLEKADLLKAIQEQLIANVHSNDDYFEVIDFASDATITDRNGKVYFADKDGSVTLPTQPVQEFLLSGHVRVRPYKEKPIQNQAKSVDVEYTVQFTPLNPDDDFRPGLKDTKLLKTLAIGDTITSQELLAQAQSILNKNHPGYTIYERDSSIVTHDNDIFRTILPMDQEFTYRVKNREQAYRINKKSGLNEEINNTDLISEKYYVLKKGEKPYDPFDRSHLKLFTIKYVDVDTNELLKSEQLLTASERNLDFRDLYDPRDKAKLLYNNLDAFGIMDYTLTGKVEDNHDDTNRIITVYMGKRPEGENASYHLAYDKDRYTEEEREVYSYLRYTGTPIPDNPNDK

[2] = biological target: T2, plasminogen according to the present invention (20 mg/ml, Example 8)
T2 chain: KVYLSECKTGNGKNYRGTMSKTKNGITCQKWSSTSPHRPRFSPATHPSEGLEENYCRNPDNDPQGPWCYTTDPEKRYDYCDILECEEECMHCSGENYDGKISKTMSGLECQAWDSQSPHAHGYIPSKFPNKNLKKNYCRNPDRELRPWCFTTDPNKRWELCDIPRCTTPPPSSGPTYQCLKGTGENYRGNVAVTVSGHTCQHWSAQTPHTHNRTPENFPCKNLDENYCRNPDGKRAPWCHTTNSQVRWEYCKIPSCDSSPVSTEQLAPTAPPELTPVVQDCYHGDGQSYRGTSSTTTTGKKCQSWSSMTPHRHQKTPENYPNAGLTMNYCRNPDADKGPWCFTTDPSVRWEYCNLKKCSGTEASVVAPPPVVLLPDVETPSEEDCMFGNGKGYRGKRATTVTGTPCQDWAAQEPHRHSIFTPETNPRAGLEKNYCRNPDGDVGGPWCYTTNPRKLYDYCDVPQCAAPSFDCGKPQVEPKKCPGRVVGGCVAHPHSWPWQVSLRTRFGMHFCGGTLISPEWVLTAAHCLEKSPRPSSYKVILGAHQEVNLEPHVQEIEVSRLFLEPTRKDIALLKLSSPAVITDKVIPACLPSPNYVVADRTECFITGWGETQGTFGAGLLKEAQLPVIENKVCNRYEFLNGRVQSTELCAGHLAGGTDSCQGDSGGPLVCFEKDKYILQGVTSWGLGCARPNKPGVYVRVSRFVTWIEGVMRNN

B1: recombinant human Lys-plasminogen secreted by Pichia pastoris carrying pSM54.2, pAC37.1 or pJW9.1 (alpha-factor prepropeptide joined by a Kex2 and two Ste13 … (protein)
chain: T2 chain
[1]
  plasminogen activity after streptokinase activation, fermentation for 250 h, KM71H/pJW9.1-3: a plasminogen activity of 1375 U/l
  plasminogen activity of culture supernatant after activation with streptokinase, 72 h of induction, KM71H/pSM54.2-1/1: 2 U/l
  plasminogen activity of culture supernatant after activation with streptokinase, 72 h of induction, KM71H/pSM54.2-1/2: 8 U/l
  plasminogen activity of culture supernatant after activation with streptokinase, 72 h of induction, KM71H/pSM54.2-1/3: 6 U/l
  plasminogen activity of culture supernatant after activation with streptokinase, 118 h of induction, KM71H/pSM54.2-1/1: 8 U/l
  plasminogen activity of culture supernatant after activation with streptokinase, 118 h of induction, KM71H/pSM54.2-1/2: 17 U/l
  plasminogen activity of culture supernatant after activation with streptokinase, 118 h of induction, KM71H/pSM54.2-1/3: 13 U/l
  plasminogen activity of culture supernatant after activation with streptokinase, 120 h of induction, KM71/pAC37.1-3/1: an activity of 120 U/l
  plasminogen activity of culture supernatant after activation with streptokinase, 216 h of induction, KM71/pAC37.1-3/1: an activity of 190 U/l
  plasminogen activity of culture supernatant after activation with streptokinase, BSM minimal medium, 120 h of induction, KM71/pAC37.1-3/1: a plasminogen activity of 193 U/l
  plasminogen activity of culture supernatant after activation with streptokinase, BSM minimal medium, 168 h of induction, KM71/pAC37.1-3/1: 289 U/l

B2: recombinant human Lys-plasminogen secreted by Pichia pastoris KM71H/pMHS476.1 (alpha-factor prepropeptide joined by a Kex2 cleavage site) (protein)
chain: T2 chain
[1]
  plasminogen activity of culture supernatant after activation with streptokinase (N-tosyl-Gly-Pro-Lys-pNA conversion), 72 h of induction, KM71H/pMHS476.1-1/1: 2 U/l
  plasminogen activity of culture supernatant after activation with streptokinase (N-tosyl-Gly-Pro-Lys-pNA conversion), 72 h of induction, KM71H/pMHS476.1-1/2: 2 U/l
  plasminogen activity of culture supernatant after activation with streptokinase (N-tosyl-Gly-Pro-Lys-pNA conversion), 72 h of induction, KM71H/pMHS476.1-1/3: 1 U/l
  plasminogen activity of culture supernatant after activation with streptokinase (N-tosyl-Gly-Pro-Lys-pNA conversion), 118 h of induction, KM71H/pMHS476.1-1/1: 7 U/l
  plasminogen activity of culture supernatant after activation with streptokinase (N-tosyl-Gly-Pro-Lys-pNA conversion), 118 h of induction, KM71H/pMHS476.1-1/2: 9 U/l
  plasminogen activity of culture supernatant after activation with streptokinase (N-tosyl-Gly-Pro-Lys-pNA conversion), 118 h of induction, KM71H/pMHS476.1-1/3: 8 U/l

B3: Clostripain (protein)
chain: NKNQKVTIMYYCDADNNLEGSLLNDIEEMKTGYKDSPNLNLIALVDRSPRYSSDEKVLGEDFSDTRLYKIEHNKANRLDGKNEFPEISTTSKYEANMGDPEVLKKFIDYCKSNYEADKYVLIMANHGGGAREKSNPRLNRAICWDDSNLDKNGEADCLYMGEISDHLTEKQSVDLLAFDACLMGTAEVAYQYRPGNGGFSADTLVASSPVVWGPGFKYDKIFDRIKAGGGTNNEDDLTLGGKEQNFDPATITNEQLGALFVEEQRDSTHANGRYDQHLSFYDLKKAESVKRAIDNLAVNLSNENKKSEIEKLRGSGIHTDLMHYFDEYSEGEWVEYPYFDVYDLCEKINKSENFSSKTKDLASNAMNKLNEMIVYSFGDPSNNFKEGKNGLSIFLPNGDKKYSTYYTSTKIPHWTMQSWYNSIDTVKYGLNPYGKLSWCKDGQDPEINKVGNWFELLDSWFDKTNDVTGGVNHYQW
[2]
  plasmin activity after activation: 1.7 U/mg
